Data reported in article PMC11655901, “Mass balance, metabolic disposition, and pharmacokinetics of a single IV dose of [14C]CA102N in HT-29 xenograft athymic nude mice” (Frontiers in Pharmacology, 2024).
Values belong to the compound of their own block, whether it stands above or below them.

Experiments:
[1] = In vivo metabolite profiling (HPLC-MS with radio flow-through detector) of plasma, urine, feces, liver, tumor; settings: for free Nim or H-Nim in the biological samples evaluated: after [14C]CA102N 200 mg/kg IV
Description: Samples were collected on days 0 through 10. […] The weights of all samples (except blood and plasma) were recorded and then stored at −70°C for later analysis.
Fecal and tissue homogenates were maintained at approximately −70°C for MET-ID analysis. The metabolite profiling in the biological samples from mice dosed with [14C]CA102N was performed by HPLC-tandem mass spectrometry coupled with a radio flow-through detector (RFD). The HPLC-MS/radio flow-through detector (RFD) consisted of a Shimadzu NexeraTM (Shimadzu, disseminated Japan) ultra-high pressure liquid chromatography system with two LC-30AD pumps, a SIL30AC autosampler, and a CTO-30A column oven; A Sciex TripleTOF 6600TM (Sciex, Framingham, MA) mass spectrometer; and a β-RAM Model 3 RFD. The mass spectrometer was controlled by Analyst TF 1.7TM (Sciex, Framingham, MA), and the RFD was controlled by Laura Lite 5TM (LabLogic Systems, Brandon, FL) software. The HPLC eluent was split between the RFD and mass spectrometer with a ratio of 3 to 1.
[14C]CA102N and its metabolites were separated using reverse-phase and hydrophilic interaction chromatography. Two HPLC methods were used to separate the metabolites and the parent molecule CA102N, using RFD and mass spectrometer simultaneously.
Retention times of the metabolites were determined from the radio-chromatograms. Mass spectra (MS and MS/MS) of metabolite standards (H-Nim, H-Nim Saccharide, H-Nim Disaccharide) were acquired and major fragment patterns were proposed. […] For other unknown metabolites, molecular ions were searched on LC-MS chromatograms at the same retention times as those found on an HPLC radio-chromatogram. The product/ion spectra were acquired for the corresponding molecular ions. Putative metabolite structures were proposed based on the analysis of their mass fragment patterns.

[2] = PK of the parent molecule H-Nim in mice (LCMS of serum); type: in vivo, female BALB/c athymic (nu+/nu+) mice; settings: 4.5 mg/kg IV
Description: Female BALB/c athymic (nu+/nu+) mice (n = 5) were used in the study. Mice were treated with a single bolus injection of H-Nim via the tail vein at 4.5 mg/kg. The blood samples were collected at 5, 10, 30, 60, and 120 min after treatment. Mice were anesthetized and decapitated to obtain the blood samples. Serum supernatant was collected and stored at −80 until analysis.
PK samples were analyzed by LCMS analysis. The retention time of H-Nim was approximately 25.4 min on the extracted ion chromatogram (XIC) and the protonated molecule of H-Nim was at m/z 279.

[3] = mouse, in vivo
Description: Female BALB/c athymic (nu+/nu+) mice (n = 48) were generated by Taconic (Germantown, NY). Mice (18–22 g) were acclimated for at least 3 days before subcutaneous implantation of 1 × 10^7 HT-29 colorectal carcinoma (ATCC number HTB38) cells in 100 μL 50:50 matrigel: PBS. Tumors were allowed to grow to 200–500 mm^3 sizes before initiating the study. Each animal was assigned a permanent identification number, and identified with a tail mark before being placed on the study. Food and water were provided ad libitum. Animal rooms were controlled to maintain a temperature of 68°F–79°F, and 20%–70% relative humidity, with a 12 h light/12 h dark cycle. Observations were recorded for all animals pre-dose and at least once daily post-dose. Mice were randomized into 3 groups and housed (n = 3 per cage) in metabolism cages (Group 1, n = 9) or shoebox cages (Group 2, n = 29 and Group 3, n = 10). […] Urine, feces, cage residue, blood/plasma, tissue samples, and carcasses were collected from different groups for Mass Balance (MB), Metabolite Identification (MET-ID), Pharmacokinetics (PK), and Quantitative Whole-Body Autoradiography (QWBA) studies.
Samples were collected on days 0 through 10. […] Blood samples were collected via cardiac puncture (Group 2), into EDTA-containing tubes at 0 (pre-dose), 0.5, 2, 8, 24, 48, 72, 120,168, 240, and 336 h after the dose, and plasma samples were harvested on wet ice for PK analysis. […] The weights of all samples (except blood and plasma) were recorded and then stored at −70°C for later analysis.
Radioactivity in diluted formulations, plasma, and urine, was quantitated by mixing with a liquid scintillator, Ultima Gold scintillation cocktail (5 mL, PerkinElmer). Samples were analyzed by LSC for total radioactivity content.
Nominal times were used for pharmacokinetic calculations. Phoenix® WinNonlin®, (version 6.3, Pharsight Corporation, Mountain View, CA, United States) noncompartmental pharmacokinetic analysis was used to determine PK parameters [Maximal concentration (Cmax), Time of maximal concentration (Tmax), Terminal half-life (t1/2), area under the curve to infinity observed (AUCinf obs [µg equiv·h/g]), and area under the curve all observed points (AUCall [µg equiv·h/g])]. The acceptance criteria for the terminal half-life (t1/2) estimation used regression of at least three time points. […] Plasma concentrations are expressed as µg equivalents (equiv)/g (assume 1 mL = 1 g).

[4] = Quantitative Whole-Body Autoradiography (QWBA) tissue distribution of total radioactivity; type: in vivo, female BALB/c athymic (nu+/nu+) HT-29 xenograft mice
Description: Food and water were provided ad libitum.
Samples were collected on days 0 through 10.
The pinna, limbs, and tail were removed from each frozen carcass (Group 3) and the remaining carcass was embedded in an aqueous suspension of approximately 1% (w/v) carboxymethylcellulose and frozen into a block. The blocks were stored at approximately −20°C before sectioning. Each blocked carcass was mounted on a microtome stage (Leica CM3600 Cryomacrocut and/or a Vibratome 9800, Leica Corp., Nussloch, Germany) and maintained at approximately −20°C. Sections were collected and allowed to dry by sublimation in the cryomicrotome at −20°C for at least 48 h. A set of sections for each mouse was mounted on a cardboard backing, covered with a thin plastic wrap, and exposed along with calibration standards of [14C]-glucose mixed with blood at 10 different concentrations to a [14C]-sensitive phosphor imaging plate (Fuji Biomedical, Stamford, CT). The imaging plates and sections were placed in light-tight exposure cassettes, for a 4-day (96 h) exposure at room temperature. The imaging plates were scanned using the GE Healthcare Typhoon FLA 9500 image acquisition system (GE/Molecular Dynamics, Sunnyvale, CA, United States). Quantification was performed by image dosimetry using MCID image analysis software (Version 7.0, Interfocus Imaging Ltd., Linton, Cambridge, United Kingdom). A standard curve was constructed from the integrated response (MDC/mm2) and the nominal concentrations of the [14C]-calibration standards. The concentrations of radioactivity were expressed as the µg equivalents of CA102N per gram sample (µg equiv/g).
The following calculations were used to determine the µg equivalents/mL, or/g and % percent of dose in the tissue: µg equivalents/mL=µCi/mL/Specific Activity DosedµCi/mL µg equivalents/g=DPM of the sample×1/MassTissueg/Specific Activity of the radiolabeled moleculeDPM/g Percent of dose in tissue=µg eq in tissue×100/Specific Activity DosedμCi/μg
Autoradioluminographic image data were calibrated using response curves that were generated using a weighted, 1st-degree, polynomial, linear equation (1/MDC/mm^2). A numerical estimate of the goodness of fit was given by the relative error, where the absolute value for the relative error of each calibration standard must have been ≤0.250 to be accepted.
The LLOQ and ULOQ were set using calibration standard concentration values of 0.0003 and 20.973 μCi/g, respectively, which were widely proven values ([Kolbe and Dietzel, 2000]) that were verified during the QWBA system validation ([Solon and Lee, 2002]).

HT-29 xenograft = system: HT-29 xenograft; parameters: method as in Lin et al., 2017; settings: 200 or 400 mg/kg weekly (QW) or three times a week (TIW); ref Lin et al., 2017; cited from earlier work
[5] = mouse, in vivo; remark: listed apart in the source
Description: Female BALB/c athymic (nu+/nu+) mice (n = 48) were generated by Taconic (Germantown, NY). Mice (18–22 g) were acclimated for at least 3 days before subcutaneous implantation of 1 × 10^7 HT-29 colorectal carcinoma (ATCC number HTB38) cells in 100 μL 50:50 matrigel: PBS. Tumors were allowed to grow to 200–500 mm^3 sizes before initiating the study. Each animal was assigned a permanent identification number, and identified with a tail mark before being placed on the study. Food and water were provided ad libitum. Animal rooms were controlled to maintain a temperature of 68°F–79°F, and 20%–70% relative humidity, with a 12 h light/12 h dark cycle. Observations were recorded for all animals pre-dose and at least once daily post-dose. Mice were randomized into 3 groups and housed (n = 3 per cage) in metabolism cages (Group 1, n = 9) or shoebox cages (Group 2, n = 29 and Group 3, n = 10). Each mouse received a single bolus injection of CA102N via the tail vein. Urine, feces, cage residue, blood/plasma, tissue samples, and carcasses were collected from different groups for Mass Balance (MB), Metabolite Identification (MET-ID), Pharmacokinetics (PK), and Quantitative Whole-Body Autoradiography (QWBA) studies.
Samples were collected on days 0 through 10. […] The weights of all samples (except blood and plasma) were recorded and then stored at −70°C for later analysis. […]
Radioactivity in diluted formulations, plasma, and urine, was quantitated by mixing with a liquid scintillator, Ultima Gold scintillation cocktail (5 mL, PerkinElmer). Samples were analyzed by LSC for total radioactivity content. […] The resulting 14CO2 liberated during combustion was trapped in CarboSorb® and Perma-Fluor® scintillation cocktail was added automatically to the samples before total radioactivity measurement by LSC.
All LSC analyses were performed using a liquid scintillation analyzer (Perkin Elmer Model 2800TR or Model 2900TR). […] Data were corrected to the background by subtracting the dpm value measured from the analysis of blank samples (cocktail only).

[6] = in vivo; cited from earlier work

excretion by component, Feces, percent of dose ([1]; Group 1, 200 mg/kg IV): 13.20%
excretion by component, Total, percent of dose ([1]; Group 1, 200 mg/kg IV): 13.2%
metabolite in fecal extracts ([1]; pooled 0 to 120 h): primary metabolite
Compound: CC(=O)NC1C(O)OC(CO)C(O)C1OC1OC(C(=O)Nc2ccc(NS(C)(=O)=O)c(Oc3ccccc3)c2)C(O)C(O)C1O (stereo not drawn) [M1]

metabolite in liver and tumor extracts ([1]; 240 h post-dose): dominant metabolite
excretion by component, Liver + Tumor, percent of dose ([1]; Group 1, 200 mg/kg IV): 4.40%
excretion by component, Total, percent of dose ([1]; Group 1, 200 mg/kg IV): 4.4%
Compound: CC(=O)NC1C(O)OC(CO)C(O)C1OC1OC(C(=O)Nc2ccc(NS(C)(=O)=O)c(Oc3ccccc3)c2)C(OC2OC(CO)C(O)C(OC3OC(C(=O)O)C(O)C(O)C3O)C2NC(C)=O)C(O)C1O (stereo not drawn) [M1037]

The remaining lines, values behind:

Compound: CS(=O)(=O)Nc1ccc([N+](=O)[O-])cc1Oc1ccccc1 [Nimesulide, reference compound]
free Nim or H-Nim in the biological samples evaluated [1]: No free Nim or H-Nim are determined

Compound: CS(=O)(=O)Nc1ccc(N)cc1Oc1ccccc1 [H-Nim]
free Nim or H-Nim in the biological samples evaluated [1]: No free Nim or H-Nim are determined
half-life [2]: < 5 min
serum concentration at any time point greater than 5 min ([2]; detection limit 0.1 μg/mL): not detectable
serum concentration ([2]; 5 min): 142 ng/mL

Compound: N-(4-Amino-2-phenoxyphenyl) methanesulfonamide-graft-poly (β-D-(1, 3) glucuronic acid-β-D-(1, 4)-N-acetylglucosamine) conjugate [CA102N]
systemic plasma clearance (CL) [3]: 0.2 mL/min/kg
volume of distribution at steady state (Vss) [3]: 0.1 L/kg
AUC 0-inf_obs ([3]; iv, 200 mg/kg): 18332.4 μg equiv/ml*h
AUC 0-t ([3]; iv, 200 mg/kg): 18329.2 μg equiv/ml*h
AUC 0-t/0-inf_obs ([3]; iv, 200 mg/kg): 0.99
AUClast ([3]; iv, 200 mg/kg): 18,332.4 μg equiv/ml*h
AUMC 0-inf_obs ([3]; iv, 200 mg/kg): 161062.0 μg equiv/ml*h^2
C0 ([3]; iv, 200 mg/kg): 1985.6 μg equiv/ml
Cl_obs ([3]; iv, 200 mg/kg): 0.01 (mg)/(μg equiv/ml)/h
Clast_obs/Cmax ([3]; iv, 200 mg/kg): 5.5E-05
Lambda_z ([3]; iv, 200 mg/kg): 0.03 h⁻¹
MRT 0-inf_obs ([3]; iv, 200 mg/kg): 8.7 h
Vss_obs ([3]; iv, 200 mg/kg): 0.09 (mg)/(μg/mL)
Vz_obs ([3]; iv, 200 mg/kg): 0.3 (mg)/(μg equiv/ml)
mean plasma radioactivity ([3]; iv, 200 mg/kg): 1.073 µg equivalents/mL
lowest relative tissue concentrations: white adipose, brain, spinal cord, bone tissue, eye lens, mammary gland region, skeletal muscle ([4]; 200 mg/kg IV): < 60 μg equiv/g
half-life of release of CA102N and its metabolites from tumor sites ([4]; mouse, in vivo): 74.2 h
tissue-to-blood ratio, Blood (cardiac) ([4]; mouse, in vivo, iv, 200 mg/kg): 1.00
total radioactivity, adrenal Gland ([4]; mouse, in vivo, iv, 200 mg/kg): 429.979 μg equiv/g
total radioactivity, thyroid ([4]; mouse, in vivo, iv, 200 mg/kg): 469.62 μg equiv/g
tumor burden compared to vehicle-treated controls (HT-29 xenograft): significant reduction in tumor burden
cage rinses, wash, and wipe combined, percent of dose [5]: 20%
radioactivity elimination through urine, average percent of dose (abstract) [5]: 77%
total dose eliminated within the first 24 h [5]: Around 60%
hepatotoxicity [6]: absence of hepatotoxicity
